Biological target: extracellular domain of p95HER2 peptide with a poly-histidine-tag in the C-terminus (human)
Experiment: SPR

koff: 0.00893 s⁻¹
B1: Oslo-2 mAb (antibody, V domains shown)
VH: EVQILETGGGLVKPGGSLRLSCATSGFNFNDYFMNWVRQAPGKGLEWIAQIRNKNYNYATYFAESLEGRFTISRDDSKSSVYLQVNSLRAEDTALYYCTELRYDYWGQGVMVTVSS
VL: DIVMTQSPFSLAVSEGEMVTINCKSSQSLLSSGNQKNNLAWYQQKPGQSPKLLIYYASTRQSGVPDRFIGSGSGTDFTLTISDVQAEDLADYYCLQHYSSPYTFGAGTKLELK
